# Source: patent US8846866
# Numbering of substitutions follows the chain as printed.
# T1: synthetic 13-residue sulfatase consensus motif peptide LCSPSRGSLFTGR
# T1 chain: LCSPSRGSLFTGR
# B1: Mycobacterium tuberculosis formylglycine generating enzyme (Mtb FGE, Rv0712), recombinant wild type (protein)
# chain: LTELVDLPGGSFRMGSTRFYPEEAPIHTVTVRAFAVERHPVTNAQFAEFVSATGYVTVAEQPLDPGLYPGVDAADLCPGAMVFCPTAGPVDLRDWRQWWDWVPGACWRHPFGRDSDIADRAGHPVVQVAYPDAVAYARWAGRRLPTEAEWEYAARGGTTATYAWGDQEKPGGMLMANTWQGRFPYRNDGALGWVGTSPVGRFPANGFGLLDMIGNVWEWTTTEFYPHHRIDPPSTACCAPVKLATAADPTISQTLKGGSHLCAPEYCHRYRPAARSPQSQDTATTHIGFRCVADPVSG
# B2: Strep FGE Cys272Ser mutant (protein)
# chain: AVAAPSPAAAAEPGPAARPRSTRGQVRLPGGEFAMGDAFGEGYPADGETPVHTVRLRPFHIDETAVTNARFAAFVKATGHVTDAERFGSSAVFHLVVAAPDADVLGSAAGAPWWINVRGAHWRRPEGARSDITGRPNHPVVHVSWNDATAYARWAGKRLPTEAEWEYAARGGLAGRRYAWGDELTPGGRWRCNIWQGRFPHVNTAEDGHLSTAPVKSYRPNGHGLWNTAGNVWEWCSDWFSPTYYAESPTVDPHGPGTGAARVLRGGSYLSHDSYCNRYRVAARSSNTPDSSSGNLGFRCANDADLTSGSAAE
# B3: Strep FGE Trp234Phe mutant (protein)
# chain: B2 chain with W233F, S271C
# B4: Streptomyces coelicolor formylglycine generating enzyme (Strep FGE, SCO7548), recombinant wild type (protein)
# chain: B2 chain with S271C
# B5: Strep FGE Cys277Ser mutant (protein)
# chain: B2 chain with S271C, C276S
# Molecular target: T1, synthetic 13-residue sulfatase …
row,Protein,"conversion of cysteine to FGly in the peptide, by mass spectrometry (FGE activity assay)"
1,B1,Recombinant Rv0712 was able to modify a synthetic peptide containing the sulfatase motif as determined by mass spectrometry
2,B2,serine mutants were unable to generate FGly in vitro
3,B3,mutation of Trp234 to Phe did not abolish activity
4,B4,WT Strep FGE was able to oxidize the synthetic peptide
5,B5,serine mutants were unable to generate FGly in vitro
